Measurements from patent publication US20100144601A1 (Janssen / Centocor, published 2010).
Changes are numbered by the printed parent chain.

B1: Clone No. 6 (designed binder)
chain: LPAPKNLVVSEVTEDSLRLSWTAPDAAFDSFLIQYQESEKVGEAINLTVPGSERSYDLTGLKPGTEYTVSIYGVGGLTVIHPLSAEFTT
notes: F:G GGLTVIH
B2: Clone No. 3 (designed binder)
chain: B1 chain with G75E, T78G
notes: F:G EGLGVIH
B3: Clone No. 76 (designed binder)
chain: B1 chain with L77W, T78P, I80R, H81V
notes: F:G GGWPVRV
B4: Clone No. 12 (designed binder)
chain: B1 chain with T78R
notes: F:G GGLRVIH
B5: Clone No. 13 (designed binder)
chain: B1 chain with G76A, T78S
notes: F:G GALSVIH
B6: Clone No. 10 (designed binder)
chain: B1 chain with V79D
notes: F:G GGLTDIH
B7: Clone No. 11 (designed binder)
chain: B1 chain with T78S, V79S
notes: F:G GGLSSIH
B8: Clone No. 5 (designed binder)
chain: B1 chain with T78S
notes: F:G GGLSVIH
B9: Clone No. 75 (designed binder)
chain: B1 chain with G75M, G76T, V79G, H81D
notes: F:G MTLTGID
B10: Clone No. 36 (designed binder)
chain: B1 chain with T78S, I80V
notes: F:G GGLSVVH
B11: Clone No. 80 (designed binder)
chain: B1 chain with G75R, G76V, L77S, T78E, V79E, I80Y, H81G
notes: F:G RVSEEYG
B12: Clone No. 84 (designed binder)
chain: B1 chain with G75S, G76V, L77R, T78M, V79S, I80S, H81V
notes: F:G SVRMSSV
B13: Clone No. 77 (designed binder)
chain: B1 chain with G75L, G76D, T78Y, V79L, I80R, H81T
notes: F:G LDLYLRT
B14: Clone No. 14 (designed binder)
chain: B1 chain with T78S, V79F, I80L
notes: F:G GGLSFLH
B15: Clone No. 73 (designed binder)
chain: B1 chain with G75P, G76W, L77R, T78Y, V79G, I80L
notes: F:G PWRYGLH
B16: Clone No. 15 (designed binder)
chain: B1 chain with G75I, G76T, L77H, T78M, V79R, I80D, H81M
notes: F:G ITHMRDM
B17: Clone No. 2 (designed binder)
chain: B1 chain with T78S, V79D
notes: F:G GGLSDIH
B18: Clone No. 35 (designed binder)
chain: B1 chain with T78A, V79Y, I80L
notes: F:G GGLAYLH
B19: Clone No. 72 (designed binder)
chain: B1 chain with G75M, G76L, L77K, T78S, V79F, I80A, H81S
notes: F:G MLKSFAS
B20: Clone No. 71 (designed binder)
chain: B1 chain with T78R, V79Y, I80L
notes: F:G GGLRYLH
B21: Clone No. 74 (designed binder)
chain: B1 chain with T78S, V79Y, I80L
notes: F:G GGLSYLH
B22: Clone No. 7 (designed binder)
chain: B1 chain with V79Y
notes: F:G GGLTYIH
B23: Clone No. 69 (designed binder)
chain: B1 chain with G75V, G76L, L77S, T78V, V79L, I80Q, H81R
notes: F:G VLSVLQR
B24: Clone No. 85 (designed binder)
chain: B1 chain with G75L, G76W, L77W, V79L, I80R, H81K
notes: F:G LWWTLRK
B25: Clone No. 78 (designed binder)
chain: B1 chain with G75R, G76L, L77T, T78A, V79L, I80N, H81A
notes: F:G RLTALNA
B26: Clone No. 82 (designed binder)
chain: B1 chain with G75W, G76M, L77V, T78N, V79K, I80V, H81L
notes: F:G WMVNKVL
B27: Clone No. 70 (designed binder)
chain: B1 chain with G75E, G76W, L77R, T78V, V79Q, I80V, H81A
notes: F:G EWRVQVA
B28: Clone No. 79 (designed binder)
chain: B1 chain with G76I, L77P, T78R, V79W, I80V, H81R
notes: F:G GIPRWVR
B29: Clone No. 1 (designed binder)
chain: B1 chain with V79Y, I80F
notes: F:G GGLTYFH
B30: Clone No. 9 (designed binder)
chain: B1 chain with T78S, V79Y, I80F
notes: F:G GGLSYFH
B31: Clone No. 8 (designed binder)
chain: B1 chain with V79Y, I80L
notes: F:G GGLTYLH
B32: Clone No. 81 (designed binder)
chain: B1 chain with G75V, G76L, L77S, T78L, V79W, I80M, H81I
notes: F:G VLSLWMI
B33: Clone No. 83 (designed binder)
chain: B1 chain with G75D, G76V, L77T, T78E, I80Y, H81M
notes: F:G DVTEVYM
B34: Clone No. 34 (designed binder)
chain: B1 chain with I80L
notes: F:G GGLTVLH
B35: Clone No. 86 (designed binder)
chain: B1 chain with G75W, G76A, L77H, T78L, V79L, I80R, H81D
notes: F:G WAHLLRD
B36: Clone No. 68 (designed binder)
chain: B1 chain with G75W, G76H, L77G, T78M, V79I, I80R, H81P
notes: F:G WHGMIRP
B37: Clone No. 4 (designed binder)
chain: B1 chain with T78G
notes: F:G GGLGVIH

Biological target: T1, recombinant TNFα, biotinylated (human, UniProt P01375 77-233, biotinylated using sulfo-NHS-LC-Biotin (sites not given))
T1 construct: human is stated in the abstract and claims; also called biotinylated TNFα; human TNFα
T1 sequence (P01375 77-233 limits assumed): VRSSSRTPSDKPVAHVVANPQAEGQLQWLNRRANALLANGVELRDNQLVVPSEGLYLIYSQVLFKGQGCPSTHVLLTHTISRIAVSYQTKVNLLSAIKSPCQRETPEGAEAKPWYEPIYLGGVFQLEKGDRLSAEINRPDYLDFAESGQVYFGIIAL
Assay: ELISA of lysates on biotinylated TNFα on streptavidin plate
Procedure: Maxisorp plates (Nunc) were coated with 0.5 μg of streptavidin, washed with TBST, and bound to 100 ng of biotinylated TNFα or 200 ng of biotinylated human serum albumin before being blocked with Starting Block (Thermo Scientific). Clarified lysates diluted 1:1 in Starting Block were added to the plates and allowed to bind for 1 hour before being washed with TBST. Detection of bound Tencon was accomplished using an anti-HIS-HRP antibody (Qiagen).

| Binder | binding result |
| --- | --- |
| B1 | binds |
| B2 | binds |
| B3 | binds |
| B4 | binds |
| B5 | binds |
| B6 | binds |
| B7 | binds |
| B8 | binds |
| B9 | binds |
| B10 | binds |
| B11 | binds |
| B12 | binds |
| B13 | binds |
| B14 | binds |
| B15 | binds |
| B16 | binds |
| B17 | binds |
| B18 | binds |
| B19 | binds |

| Binder | binding result |
| --- | --- |
| B20 | binds |
| B21 | binds |
| B22 | binds |
| B23 | binds |
| B24 | binds |
| B25 | binds |
| B26 | binds |
| B27 | binds |
| B28 | binds |
| B29 | binds |
| B30 | binds |
| B31 | binds |
| B32 | binds |
| B33 | binds |
| B34 | binds |
| B35 | binds |
| B36 | binds |
| B37 | binds |
